Assay results reported in US9301917B2, “Sustained-release pharmaceutical composition” (Kyoto University, priority 2010, dated 2016).

What was measured:
[1] = Influence of sugar on drug release from collagen in vitro (Example 1); type: physicochemical; details: lysozyme 2 mg/mL, atelocollagen 3% [w/v], sucrose 0.05 M vs no sucrose; PBS external liquid, 37° C., HPLC
Description: The influence of a sugar on drug release from a collagen was confirmed through use of lysozyme (final concentration: 2 mg/mL) (Sigma-Aldrich Corporation) as a drug.
Lysozyme was dissolved in a physiological buffer (PBS, pH 7.4) containing sucrose (final concentration: 0.05 M) or a physiological buffer containing no sucrose. After that, the solution and an atelocollagen solution (final concentration: 3% [w/v]) (product name: KOKEN ATELOCOLLAGEN IMPLANT) were mixed and formulated.
Conditions for the measurement were as follows: • Initial eluent: 30% acetonitrile solution containing 0.1% triethylamine (TEA) • Final eluent: concentration-gradient elution with 45% acetonitrile solution containing 0.1% TEA • rate: 1 mL/min • Elution time: 30 minutes • Detection wavelength: 220 nm

[2] = Influence of formulation procedure on drug release rate in vivo (Example 3); details: 100 μL to dorsal subcutis of mice, 1 hour; lysozyme 5 mg/mL, sucrose 0.25 M, atelocollagen 3% [w/v]; different mixing orders
Description: The following three kinds of ingredients were mixed in different orders and formulated as shown in the following items a) to d): lysozyme (MW: 14 kDa); sucrose; and atelocollagen (product name: KOKEN ATELOCOLLAGEN IMPLANT).
Each of the formulations was prepared so that the final concentrations of lysozyme, sucrose, and atelocollagen were 5 mg/mL, 0.25 M, and 3% [w/v], respectively.
100 μL of each of the formulations according to the above-mentioned items a) to d) were administered to the dorsal subcutis of mice. One hour later, the formulation that underwent gelation at a body temperature was taken out, and the amount of the lysozyme remaining in the gel was measured by HPLC to calculate the release amount of the lysozyme.

## lysozyme
[1]
  amount of the lysozyme released into the external liquid: large in the case of containing sucrose as compared to the case of containing no sucrose
[2]
  release amount of the lysozyme in vivo: varied depending on a change in mixing procedure
